In experiment [1] the target is T1, p75NTR on A875 cells (UniProt P08138 29-427).
T1 construct: whole, on cells; also called p75 receptor; cells expressing only p75
T1 sequence (looked up): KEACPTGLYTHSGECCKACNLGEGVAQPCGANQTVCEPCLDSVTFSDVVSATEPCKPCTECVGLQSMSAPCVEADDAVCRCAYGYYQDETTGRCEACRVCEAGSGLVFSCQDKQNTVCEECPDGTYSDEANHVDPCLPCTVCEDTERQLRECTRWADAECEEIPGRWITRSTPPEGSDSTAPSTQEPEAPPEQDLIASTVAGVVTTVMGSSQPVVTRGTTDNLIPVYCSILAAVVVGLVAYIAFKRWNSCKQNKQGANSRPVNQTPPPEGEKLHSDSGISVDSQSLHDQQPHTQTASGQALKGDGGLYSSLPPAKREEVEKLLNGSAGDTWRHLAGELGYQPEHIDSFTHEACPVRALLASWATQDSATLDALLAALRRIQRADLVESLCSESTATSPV
Description: ratio of IC50s, whole-cell competition against 125I-NGF on cells expressing only p75. How it is done:
(§1) FIG. 8: Binding analysis of mature and cleavage-resistant pro-NGF to TrkA or p75^NTR receptors. […] Competition analysis of equilibrium binding was performed using a whole-cell assay. Cells were incubated with 1 nM radioiodinated NGF in the presence or absence of unlabeled mature NGF or unlabeled proNGF from 0.005 to 7 nM concentration for 1 hour at […] Nonspecific binding measured in parallel incubation with 500-fold excess mature NGF was less than 10% of total binding; all results were corrected for this non-specific binding. Each point represents the mean±standard deviation of quadruplicate determinations. Squares, commercial mature NGF; open circles, cleavage resistant pro-NGF.
(§2) The cleavage resistant proform of NGF binds with higher affinity than the cleaved mature form of NGF to the p75 receptor. Competition binding assays were performed to determine the affinity of interaction of the uncleaved proform to p75 or to trk A. Commercially purchased, predominantly mature NGF (Enzo Products for Science, Farmingdale, N.Y.) was radiolabeled and incubated with cells expressing only p75, in the presence or absence of increasing concentrations of either unlabeled cleaved NGF, or of unlabeled cleavage resistant pro-NGF. […] Thus, the cleavage resistant pro-NGF proform binds less effectively to trk A.

Experiment [2] deals with T1, p75NTR on A875 cells. The experiment is described as follows: whole-cell competition against 1 nM 125I-NGF on cells expressing only p75 (A875 cells). How it is done:
as §1, §2

Experiment [3] concerns the target TrkA on 293 cells. Description: whole-cell competition against 1 nM 125I-NGF on 293 cells expressing only trk A. The procedure: as §1, §2
Experiment [4] deals with p75 on vascular smooth muscle cell line (p75Ts-Tag-SMC). The experiment is described as follows: cell-based or functional assay.

Where only a bound is given, the exact number is not on record here.

Sequence of TrkA on 293 cells (chain, as listed by the source): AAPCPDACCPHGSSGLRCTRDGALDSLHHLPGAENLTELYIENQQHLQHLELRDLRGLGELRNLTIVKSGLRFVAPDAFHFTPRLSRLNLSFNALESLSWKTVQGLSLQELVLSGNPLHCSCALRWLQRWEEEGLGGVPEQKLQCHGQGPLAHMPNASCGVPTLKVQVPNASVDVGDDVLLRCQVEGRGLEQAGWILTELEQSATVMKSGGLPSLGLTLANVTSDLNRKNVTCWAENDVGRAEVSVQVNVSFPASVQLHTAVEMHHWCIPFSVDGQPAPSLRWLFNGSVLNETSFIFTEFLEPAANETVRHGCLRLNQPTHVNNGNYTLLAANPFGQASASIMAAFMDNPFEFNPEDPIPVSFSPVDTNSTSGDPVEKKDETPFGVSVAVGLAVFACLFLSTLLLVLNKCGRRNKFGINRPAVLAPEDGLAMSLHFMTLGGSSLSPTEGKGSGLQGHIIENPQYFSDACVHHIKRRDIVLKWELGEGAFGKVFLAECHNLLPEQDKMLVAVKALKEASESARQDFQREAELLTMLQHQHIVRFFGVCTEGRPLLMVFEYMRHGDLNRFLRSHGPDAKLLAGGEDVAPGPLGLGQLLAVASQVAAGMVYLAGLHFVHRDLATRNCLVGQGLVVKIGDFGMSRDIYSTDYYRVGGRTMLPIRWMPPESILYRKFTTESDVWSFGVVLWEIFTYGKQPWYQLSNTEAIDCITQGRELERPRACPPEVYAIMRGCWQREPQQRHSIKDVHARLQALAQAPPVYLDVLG

B1: His-tagged cleavage resistant pro-NGF (point mutant, K-R cleavage site at 120,121 mutated to A-A) (ligand)
chain: EPYTDSNVPEGDSVPEAHWTKLQHSLDTALRRARSAPTAPIAARVTGQTRNITVDPRLFKKRRLHSPRVLFSTQPPPTSSDTLDLDFQAHGTIPFNRTHRSAASSTHPVFHMGEFSVCDSVSVWVGDKTTATDIKGKEVTVLAEVNINNSVFRQYFFETKCRASNPVESGCRGIDSKHWNSYCTTTHTFVKALTTDEKQAAWRFIRIDTACVCVLSRKATRRG
notes: also called cleavage resistant proform of NGF; uncleaved proform; not shown: His tag at the carboxy-terminus
For the molecule B1, the “times as effective in binding p75 as cleaved NGF” value in experiment [1] is around 5 fold. Besides, the IC50 in experiment [2] is 200 pM; in experiment [3], above 5000 pM. For the same molecule, in experiment [4], the “induction of apoptosis relative to mature NGF” value was around 10 fold.

A word on the IC50: it is the concentration that inhibits the measured activity by half. High values mean lower potency, low ones higher potency.
